# Numbering of substitutions follows the chain as printed.
# B1: CL069707-H1L1 (antibody, human IgG1, kappa, V domains shown)
# VH: EVQLVESGGGLVQPGGSLRLSCAASGFTFTTYAMNWVRQAPGKGLEWVARIRIKNNNYATYYADSVTDRFTISRDDSKNSLYLQMNSLKTEDTAVYYCVRPDYGNYGLAYWGQGTLVTVSS
# VL: DIQLTQSPSSLSASVGDRVTITCSASSSISSHYLHWYQQKPGKSPKLLIYRSFYLASGVPSRFSGSGSGTDFTLTISSLQPEDFATYYCQQDIVPLTFGQGTKLEIKR
# notes: Humanized IgG1/kappa, produced in 293 cells; also called humanized CL069707-H1L1
# Columns and labels:
# [1] = target: T1, human CDH10-ECD-His (human, UniProt Q9Y6N8 55-613); test: ELISA, antigen coated at 1 ug/mL, 3-fold dilutions of CL069707-H1L1, HRP anti-human antibody, OD450
# T1 construct: extracellular domain; Bought protein; also called CDH10-ECD-His protein; not shown: His tag
# T1 sequence (looked up): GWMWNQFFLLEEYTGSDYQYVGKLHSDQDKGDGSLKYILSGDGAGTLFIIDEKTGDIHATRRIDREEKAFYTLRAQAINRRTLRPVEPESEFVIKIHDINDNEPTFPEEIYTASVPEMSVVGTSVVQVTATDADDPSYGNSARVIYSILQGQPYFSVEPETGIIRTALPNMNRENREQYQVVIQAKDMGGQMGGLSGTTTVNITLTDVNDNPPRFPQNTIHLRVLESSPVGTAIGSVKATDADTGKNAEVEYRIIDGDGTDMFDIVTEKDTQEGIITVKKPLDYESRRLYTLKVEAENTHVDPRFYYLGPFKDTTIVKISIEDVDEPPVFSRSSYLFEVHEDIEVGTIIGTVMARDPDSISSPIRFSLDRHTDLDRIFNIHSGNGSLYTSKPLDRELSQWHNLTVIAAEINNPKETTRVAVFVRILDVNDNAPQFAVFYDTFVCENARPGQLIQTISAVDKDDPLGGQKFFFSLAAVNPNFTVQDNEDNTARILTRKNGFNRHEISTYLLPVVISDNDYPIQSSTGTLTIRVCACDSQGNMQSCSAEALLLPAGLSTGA
# Protocol: (§1) CDH9 and […] are the most closely related family members to CDH6. Binding of CL069707-H1L1 on human CDH6, CDH9 and CDH10 ECD domains were analyzed by ELISA Binding Assay. Human […], CDH9-ECD-His and CDH10-ECD-His antigens were obtained from Acro Biosystems, Inc. 100 μL of 1 μg/mL of the antigens diluted in PBS were added to 96 well plates and incubated in 4° C. overnight. The plates were washed 3 times with 300 μL of washing buffer. Then 100 μL/well of 1% BSA blocking reagent were added to the plates, and incubated at 37° C. for 1 h then the blocking reagent were discarded. A 3-fold serial dilution of CL069707-H1L1 was added to the plates and then incubated at 37° C. for 1 h. Then the plates were washed 3 times with 300 μL of washing buffer. 100 μL/well of HRP-conjugated anti-Human antibody diluted in 1% BSA were added to the plates and then incubated at 37° C. for 1 h. The plates were washed 3 times with 300 μL of washing buffer. 100 μL/well of TMB substrate were added to the plates and incubated for about 10 min in room temperature. Then the reaction was stopped with 100 μL/well of stopping solution. OD450 was read with a plate reader and the data were processed.
# [2] = target: T2, mouse CDH6-ECD-His (mouse, UniProt P97326 54-615); test: ELISA, antigen coated at 1 ug/mL, 3-fold antibody dilutions, HRP anti-human antibody, OD450
# T2 construct: extracellular domain; Bought protein; not shown: His tag
# T2 sequence (looked up): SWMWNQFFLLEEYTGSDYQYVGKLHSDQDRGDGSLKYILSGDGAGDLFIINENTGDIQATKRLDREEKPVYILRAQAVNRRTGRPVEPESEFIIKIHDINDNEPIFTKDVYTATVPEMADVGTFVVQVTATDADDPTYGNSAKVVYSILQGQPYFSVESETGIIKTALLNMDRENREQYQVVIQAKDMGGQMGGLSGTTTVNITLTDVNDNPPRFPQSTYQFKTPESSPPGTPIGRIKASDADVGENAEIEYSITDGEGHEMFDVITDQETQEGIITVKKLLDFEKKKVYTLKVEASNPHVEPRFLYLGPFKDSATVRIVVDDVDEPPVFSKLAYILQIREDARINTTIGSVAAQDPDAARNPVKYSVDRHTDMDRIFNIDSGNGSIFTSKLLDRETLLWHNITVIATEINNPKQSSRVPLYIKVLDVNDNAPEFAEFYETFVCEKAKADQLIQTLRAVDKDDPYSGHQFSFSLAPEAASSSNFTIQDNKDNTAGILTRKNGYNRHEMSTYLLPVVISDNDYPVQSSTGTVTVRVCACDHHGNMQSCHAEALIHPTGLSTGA
# Protocol: as §1
# (§2) Binding of CL069707-H1L1 on human, cyno monkey, mouse or rat CDH6 antigen were analyzed by ELISA. Human, cyno monkey, mouse and rat CDH6-ECD-His antigens were obtained from Acro Biosystems, Inc. ELISA were done with the same methods as in example 3.1. CL069707-H1L1 binds to human, cyno monkey, mouse and rat CDH6-ECD-His antigens with similar EC50.
# [3] = target: T3, rat CDH6-ECD-His (rat, UniProt P55280 54-615); test: as above
# T3 construct: extracellular domain; Bought protein; not shown: His tag
# T3 sequence (looked up): T2 sequence (looked up) with V78I, E261D, K288R, V301I, L333P, R344Q, R457H, S481G
# Protocol: as §1, §2
binder,measurement,setting,value
B1,binding result,[1],no binding (tested: 100 nM)
same,EC50 (read off the curve),[2],~0.1 nM
same,EC50 (read off the curve),[3],~0.1 nM

# Reference: patent publication US20250090677A1 (MULTITUDE THERAPEUTICS, published 2025)
